Measurements taken from patent US20090148383A1.

Experiments:
[1] = biological target: recombinant tick anticoagulant peptide (rTAP) (UniProt P17726)
[2] = biological target: activated, fibrinogen-bound GP IIb/IIIa on activated mouse platelets (mouse) (UniProt Q9QUM0); assay: histology of the wire-injured mouse femoral artery after bead perfusion
[3] = biological target: activated, fibrinogen-bound GP IIb/IIIa on activated mouse platelets (mouse) (UniProt Q9QUM0); assay: ex vivo 11.7 T MRI of the wire-injured mouse femoral artery after bead perfusion

Chain of activated, fibrinogen-bound GP IIb/IIIa on activated mouse platelets (mouse) (Q9QUM0 32-1033, chain 1 of 2): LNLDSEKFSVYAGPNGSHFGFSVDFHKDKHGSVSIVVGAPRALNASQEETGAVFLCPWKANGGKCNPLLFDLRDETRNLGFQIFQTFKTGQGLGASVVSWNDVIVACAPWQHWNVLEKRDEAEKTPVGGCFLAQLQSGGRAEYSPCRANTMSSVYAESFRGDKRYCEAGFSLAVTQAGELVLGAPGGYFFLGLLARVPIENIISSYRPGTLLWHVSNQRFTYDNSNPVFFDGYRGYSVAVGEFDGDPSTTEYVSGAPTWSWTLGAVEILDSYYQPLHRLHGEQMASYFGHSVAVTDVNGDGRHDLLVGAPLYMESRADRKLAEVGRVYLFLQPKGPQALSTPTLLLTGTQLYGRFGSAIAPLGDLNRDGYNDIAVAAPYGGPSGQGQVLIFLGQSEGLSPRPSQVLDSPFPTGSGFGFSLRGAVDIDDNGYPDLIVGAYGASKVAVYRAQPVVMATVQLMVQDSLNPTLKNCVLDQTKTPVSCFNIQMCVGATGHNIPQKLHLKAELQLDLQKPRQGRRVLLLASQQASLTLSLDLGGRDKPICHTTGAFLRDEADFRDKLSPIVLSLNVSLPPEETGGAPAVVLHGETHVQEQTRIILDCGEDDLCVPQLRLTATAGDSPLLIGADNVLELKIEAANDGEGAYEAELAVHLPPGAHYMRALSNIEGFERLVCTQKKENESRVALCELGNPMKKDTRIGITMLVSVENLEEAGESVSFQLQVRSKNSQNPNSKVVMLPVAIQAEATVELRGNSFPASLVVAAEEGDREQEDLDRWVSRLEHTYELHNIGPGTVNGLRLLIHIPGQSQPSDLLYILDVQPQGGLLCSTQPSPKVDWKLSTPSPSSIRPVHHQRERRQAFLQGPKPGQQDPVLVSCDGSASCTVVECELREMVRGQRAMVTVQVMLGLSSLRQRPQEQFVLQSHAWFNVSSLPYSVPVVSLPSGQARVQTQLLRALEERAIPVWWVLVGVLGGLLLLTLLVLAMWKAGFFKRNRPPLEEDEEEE
Chain of activated, fibrinogen-bound GP IIb/IIIa on activated mouse platelets (mouse) (O54890 26-787, chain 2 of 2, further chain): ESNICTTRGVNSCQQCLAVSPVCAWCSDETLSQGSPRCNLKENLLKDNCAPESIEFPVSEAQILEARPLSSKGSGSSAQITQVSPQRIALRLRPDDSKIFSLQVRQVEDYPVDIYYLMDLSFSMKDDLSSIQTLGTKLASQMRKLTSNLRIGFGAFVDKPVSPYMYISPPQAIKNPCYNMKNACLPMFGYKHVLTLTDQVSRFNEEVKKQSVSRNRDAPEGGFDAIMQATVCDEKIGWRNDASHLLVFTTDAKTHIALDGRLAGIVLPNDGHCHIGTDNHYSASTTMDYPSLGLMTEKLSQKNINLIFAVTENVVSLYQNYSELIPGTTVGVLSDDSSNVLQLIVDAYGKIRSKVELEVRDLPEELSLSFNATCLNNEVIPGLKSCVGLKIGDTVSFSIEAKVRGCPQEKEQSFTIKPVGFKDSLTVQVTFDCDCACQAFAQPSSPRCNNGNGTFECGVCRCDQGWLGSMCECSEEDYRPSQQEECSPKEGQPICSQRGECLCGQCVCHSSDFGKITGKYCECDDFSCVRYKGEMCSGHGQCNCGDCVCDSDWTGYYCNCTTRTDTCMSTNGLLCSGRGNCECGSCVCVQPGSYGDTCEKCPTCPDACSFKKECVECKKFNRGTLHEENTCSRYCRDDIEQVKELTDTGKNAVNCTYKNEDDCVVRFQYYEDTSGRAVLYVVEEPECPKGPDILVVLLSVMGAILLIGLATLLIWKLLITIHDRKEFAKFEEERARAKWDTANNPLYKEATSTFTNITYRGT
Chain of recombinant tick anticoagulant peptide (rTAP) (P17726 whole entry, the tested form may be a part): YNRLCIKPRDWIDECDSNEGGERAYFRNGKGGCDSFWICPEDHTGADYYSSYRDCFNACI

Substance	cleavage of chromogenic substrate (spectrozyme FXa #222) by factor Xa (500 pM), OD at 405 nm [1]	MPIO-binding (beads per section) (beads per section) [2]	luminal areas of low signal suggesting MPIO-accumulation (ex vivo MRI) [3]
factor Xa	inhibition of factor Xa activity by rTAP, scFv anti-LIBS-TAP, and non-targeted mut-scFv-TAP, but not by scFv anti-LIBS	–	–
irrelevant single-chain antibody conjugated to MPIO (Control-MPIO) (scFv)	–	0.5	6.2
scFv anti-LIBS (anti-LIBS single-chain antibody)	–	9.98	23.7
